# Where a chain is given by its changes, count along the chain named. Names and notes keep the numbering of the source.
# T1: Biotin-FcγRIIB (human, UniProt P31994 43-217, limits assumed, biotin-labelled)
# T1 construct: Bought, biotin-labelled; used at 1 µg/ml for staining and sorting; also called human FcγRIIB; CD32b
# T1 sequence (looked up): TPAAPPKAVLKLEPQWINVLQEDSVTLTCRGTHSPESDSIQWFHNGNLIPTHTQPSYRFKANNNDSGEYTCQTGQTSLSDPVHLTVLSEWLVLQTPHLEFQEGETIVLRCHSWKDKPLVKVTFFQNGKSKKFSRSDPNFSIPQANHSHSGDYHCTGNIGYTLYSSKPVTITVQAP
# T2: FcγRIIB (human, UniProt P31994 43-217, biotin-labeled)
# T2 construct: extracellular domain; Bought protein; also called CD32b
# T2 sequence (looked up): T1 sequence (looked up)
# T3: FcγRIIA^131H (human, UniProt P12318 34-217, biotin-labeled)
# T3 construct: extracellular domain; Bought protein; also called RIIAH
# T3 sequence (looked up): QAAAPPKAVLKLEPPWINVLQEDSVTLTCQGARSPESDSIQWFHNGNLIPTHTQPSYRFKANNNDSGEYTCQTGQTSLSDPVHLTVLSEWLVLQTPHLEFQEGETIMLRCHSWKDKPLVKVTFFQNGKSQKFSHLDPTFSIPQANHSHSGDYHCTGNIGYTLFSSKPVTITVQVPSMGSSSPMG
# T4: FcγRIIA^131R (human, UniProt P12318 34-217, biotin-labeled)
# T4 construct: extracellular domain; Bought protein; also called RIIAR
# T4 sequence (looked up): T3 sequence (looked up) with H134R
# B1: human IgG2 anti-mouse CD40 surface displayed antibody, Fc mutant P271A (antibody, name in EU numbering)
# light chain (with the P2A rest): DTVLTQSPALAVSPGERVTISCRASDSVSTLMHWYQQKPGQQPKLLIYLASHLESGVPARFSGSGSGTDFTLTIDPVEADDTATYYCQQSWNDPWTFGGGTKLELKRTVAAPSVFIFPPSDEQLKSGTASVVCLLNNFYPREAKVQWKVDNALQSGNSQESVTEQDSKDSTYSLSSTLTLSKADYEKHKVYACEVTHQGLSSPVTKSFNRGECGSGATNFSLLKQAGDVEENPG
# heavy chain: EVQLVESDGGLVQPGRSLKLPCAASGFTFSDYYMAWVRQAPTKGLEWVASISYDGSSTYYRDSVKGRFTISRDNAKSTLYLQMDSLRSEDTATYYCGRHSSYFDYWGQGVMVTVSSASTKGPSVFPLAPCSRSTSESTAALGCLVKDYFPEPVTVSWNSGALTSGVHTFPAVLQSSGLYSLSSVVTVPSSNFGTQTYTCNVDHKPSNTKVDKTVERKCCVECPPCPAPPVAGPSVFLFPPKPKDTLMISRTPEVTCVVVDVSHEDAEVQFNWYVDGVEVHNAKTKPREEQFNSTFRVVSVLTVVHQDWLNGKEYKCKVSNKGLPAPIEKTISKTKGQPREPQVYTLPPSREEMTKNQVSLTCLVKGFYPSDIAVEWESNGQPENNYKTTPPMLDSDGSFFLYSKLTVDKSRWQQGNVFSCSVMHEALHNHYTQKSLSLSPGKLEPPPSTVSNMATVAVLVVLGAAIVTGAVVAFVMKMRRRNTGGKGGDYALAPGSQTSDLSLPDCKVMVHDPHSLA
# notes: as m1; positions are Eu numbers; copies: 2 + 2
# B2: human IgG2 anti-mouse CD40 surface displayed antibody, Fc mutant H268N (antibody, name in EU numbering)
# light chain (with the P2A rest): B1 light chain (with the P2A rest)
# heavy chain: B1 heavy chain with H263N, A266P
# notes: as for B1
# B3: human IgG2 anti-mouse CD40 surface displayed antibody, Fc mutant P271L (antibody, name in EU numbering)
# light chain (with the P2A rest): B1 light chain (with the P2A rest)
# heavy chain: B1 heavy chain with A266L
# notes: as for B1
# B4: human IgG2 anti-mouse CD40 surface displayed antibody, Fc mutant P271S (antibody, name in EU numbering)
# light chain (with the P2A rest): B1 light chain (with the P2A rest)
# heavy chain: B1 heavy chain with A266S
# notes: as for B1
# B5: human IgG2 anti-mouse CD40 surface displayed antibody, Fc mutant S267N (antibody, name in EU numbering)
# light chain (with the P2A rest): B1 light chain (with the P2A rest)
# heavy chain: B1 heavy chain with S262N, A266P
# notes: as for B1
# B6: human IgG2 anti-mouse CD40 surface displayed antibody, Fc mutant S267W (antibody, name in EU numbering)
# light chain (with the P2A rest): B1 light chain (with the P2A rest)
# heavy chain: B1 heavy chain with S262W, A266P
# notes: as for B1
# B7: human IgG2 anti-mouse CD40 surface displayed antibody, Fc mutant P271I (antibody, name in EU numbering)
# light chain (with the P2A rest): B1 light chain (with the P2A rest)
# heavy chain: B1 heavy chain with A266I
# notes: as for B1
# B8: anti-human OX40 IgG2 antibody Mut_28 (P233G/S267E/S298G) (antibody)
# heavy: QVQLQESGPGLVKPSGTLSLTCAVSGGSISSSIWWSWVRQPPGKGLEWIGEIHHSGNTNCNPSLKSRVTISIDKSKNQFSLKLTSVTAADTAVYYCARAGTGTTLDYWGQGTLVTVSSASTKGPSVFPLAPCSRSTSESTAALGCLVKDYFPEPVTVSWNSGALTSGVHTFPAVLQSSGLYSLSSVVTVPSSNFGTQTYTCNVDHKPSNTKVDKTVERKCCVECPPCPAPGVAGPSVFLFPPKPKDTLMISRTPEVTCVVVDVEHEDPEVQFNWYVDGVEVHNAKTKPREEQFNGTFRVVSVLTVVHQDWLNGKEYKCKVSNKGLPAPIEKTISKTKGQPREPQVYTLPPSREEMTKNQVSLTCLVKGFYPSDIAVEWESNGQPENNYKTTPPMLDSDGSFFLYSKLTVDKSRWQQGNVFSCSVMHEALHNHYTQKSLSLSPGK
# light: EIVLTQSPGTLSLSPGERATLSCRASQSVSGDYLAWYQQKLGQAPRLLIYGASIRATGIPDRFSGSGSGTDFTLTISKLEPEDFAVYYCQQYGSSPLTFGGGTKVEIKRTVAAPSVFIFPPSDEQLKSGTASVVCLLNNFYPREAKVQWKVDNALQSGNSQESVTEQDSKDSTYSLSSTLTLSKADYEKHKVYACEVTHQGLSSPVTKSFNRGEC
# notes: Substitutions in Eu numbering; entries include an unstated signal peptide
# B9: anti-human OX40 IgG2 antibody Mut_8 (V266L/L328W) (antibody, name in EU numbering)
# heavy: B8 heavy with G231P, V263L, E264S, G295S, L325W
# light: B8 light
# notes: as for B8
# B10: anti-human OX40 IgG2 antibody Mut_30 (V234Q/V266L/S267E/H268S/E269V) (antibody)
# heavy: B8 heavy with G231P, V232Q, V263L, H265S, E266V, G295S
# light: B8 light
# notes: as for B8
# Target: T1, Biotin-FcγRIIB
# Test: FACS sorting of displayed Fc library on biotin-FcγRIIB, NGS
row,Binder,Increased factor b Site 1 (point mutation/wild-type)
1,B1,0.1

# Target: T1, Biotin-FcγRIIB
# Test: magnetic sorting on biotin-FcγRIIB with unlabelled activating FcγRs, NGS; Library2
# Experimental: 3T3 cells were collected by trypsin digestion, and a single cell suspension was prepared. […] The cells were incubated for 15 minutes on ice and then washed twice with MACS buffer and re-suspended in 100 μl MACS buffer. Twenty-five μl anti-Biotin magnetic beads were added, and the cells were incubated for 15 minutes on ice and then washed once with MACS buffer and re-suspended to 500 μl, and added to the LS column put in the magnetic field. The effluent was collected, washed with 3 mL of MACS buffer and collected; The LS column was then removed out of the magnetic field, and 5 mL of MACS buffer was used to rapidly elute the remaining cells from the sorting column to collect positive cells, which are the high I/A ratio cells.
# The high-FcγRIIB-affinity cells obtained from the above flow cytometry sorting are further sorted by magnetic-activated sorting. The cells are incubated with the mixture of Biotin-labeled FcγRIIB and non-labeled activating FcγRs, and then the labeled cells are sorted by anti-Biotin magnetic beads. The enrichment ratios after sorting relative to before sorting are analyzed by NGS.
Binder,Enrichment factor (percentage after sorting/percentage before sorting),Increased factor (mutation enrichment factor/wild-type enrichment factor),Percentage after sorting/unbinding percentage,Percentage before sorting/unbinding percentage
B2,2.31,2.79,662,286
B3,4.43,5.34,143,32.3
B4,2.74,3.3,22.2,8.1
B5,2.91,3.51,–,–
B6,1.86,2.25,52.5,28.2
B7,2.63,3.17,–,–
B1,2.77,3.33,71.2,25.7

# Target: T2, FcγRIIB
# Test: ELISA; relative affinity to FcγRIIB over that to FcγRIIA131R
row,Binder,RIIB/RIIAR [ratio]
1,B8,0.87
2,B9,1.09
3,B10,1.05

# Target: T3, FcγRIIA^131H
# Test: ELISA, coated antibody, biotin-FcγR;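 as to Absorbance value: antibody coated at 2 µg/mL at 100 µL per well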
Binder,Absorbance value [A650],Relative binding affinity RIIAH/G1 [ratio]
B8,0.14,0.24
B9,0.52,0.9
B10,0.18,0.32

# Target: T4, FcγRIIA^131R
# Test: ELISA, coated antibody, biotin-FcγR;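 as to Absorbance value: antibody coated at 2 µg/mL at 100 µL per well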
Binder,Absorbance value [A650],Relative binding affinity RIIAR/G1 [ratio]
B8,0.35,1.35
B9,0.34,1.3
B10,0.26,1.01

# Target: T2, FcγRIIB
# Test: ELISA, coated antibody, biotin-FcγR;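 as to Absorbance value: antibody coated at 2 µg/mL at 100 µL per well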
Binder,Absorbance value [A650],Increased factor of RIIB binding compared with wild-type IgG2 [fold],Relative binding affinity RIIB/G1 [ratio]
B8,0.88,11.8,1.17
B9,1.07,14.3,1.42
B10,0.8,10.7,1.06

# Target: T5, FcγRI (human, UniProt P12314 16-292, biotin-labeled)
# T5 construct: extracellular domain; Bought protein; also called CD64
# T5 sequence (P12314 16-292): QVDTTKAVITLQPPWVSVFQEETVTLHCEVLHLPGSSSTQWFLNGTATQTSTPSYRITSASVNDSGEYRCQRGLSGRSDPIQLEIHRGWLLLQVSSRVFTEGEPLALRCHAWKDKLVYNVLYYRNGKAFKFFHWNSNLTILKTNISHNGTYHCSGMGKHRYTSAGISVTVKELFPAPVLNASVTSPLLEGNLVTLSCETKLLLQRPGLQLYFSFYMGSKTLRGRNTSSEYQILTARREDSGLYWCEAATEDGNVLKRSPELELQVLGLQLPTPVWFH
# Test: ELISA, coated antibody, biotin-FcγR;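 as to Absorbance value: antibody coated at 2 µg/mL at 100 µL per well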
Binder,Absorbance value [A650],Relative binding affinity RI/G1 [ratio]
B8,0.13,0.05
B9,0.14,0.05
B10,0.12,0.05

# Target: T6, FcγRIIIA^158F (human, UniProt P08637 17-208, biotin-labeled)
# T6 construct: extracellular domain; Bought protein; also called RIIIAF
# T6 sequence (P08637 17-208): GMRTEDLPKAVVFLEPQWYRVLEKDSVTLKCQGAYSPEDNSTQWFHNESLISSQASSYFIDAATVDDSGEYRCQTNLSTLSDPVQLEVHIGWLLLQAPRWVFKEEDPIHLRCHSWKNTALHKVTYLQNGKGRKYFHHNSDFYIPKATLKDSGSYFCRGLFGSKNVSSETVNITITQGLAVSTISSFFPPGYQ
# Test: ELISA, coated antibody, biotin-FcγR;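 as to Absorbance value: antibody coated at 2 µg/mL at 100 µL per well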
Binder,Absorbance value [A650],Relative binding affinity RIIIAF/G1 [ratio]
B8,0.08,0.44
B9,0.08,0.44
B10,0.06,0.33

# Target: T7, FcγRIIIA^158V (human, UniProt P08637 17-208, biotin-labeled)
# T7 construct: extracellular domain; Bought protein; also called RIIIAV; CD16a 158V
# T7 sequence (P08637 17-208 F176V): as the sequence (P08637 17-208) above, with F160V counted along it
# Test: ELISA, coated antibody, biotin-FcγR;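 as to Absorbance value: antibody coated at 2 µg/mL at 100 µL per well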
Binder,Absorbance value [A650],Relative binding affinity RIIIAV/G1 [ratio]
B8,0.08,0.08
B9,0.07,0.07
B10,0.06,0.07

# From patent US20230220042A1 (SHANGHAI JIAO TONG UNIVERSITY SCHOOL OF MEDICINE, published 2023)
